Data: patent US20250042997A1 (PHYLAXIS BIOSCIENCE, published 2025)

Columns and labels:
[1] = target: T1, human Siglec-8 (full-length, on transfected CHO or 293 cells, or native on human eosinophils) (human, UniProt Q9NYZ4 17-499); assay: flow cytometry on 293 cells transiently transfected with full-length human Siglec-8; A647 anti-human Fc-gamma secondary; median fluorescence, nonlinear fit; table under the graph
Method: (§1) The binding of the lmG2 and humanized versions (further including Siglec8 hzG2v14), formatted as monomeric VHH-hIgG1 fusions proteins using a non-dimerizing human IgG1 Fe variant region lacking a hinge Fe NNT, was assessed by flow cytometry using 293 cells that had been transiently transfected with full-length human Siglec-8 and detected with an anti-human AF647 secondary antibody. Binding specificity was assessed using untransfected 293 cells as a control. For the binding assays, Siglec-8 293 cells or untransformed 293 cells were seeded in a 96 well U-bottom plate with 50 k cells/well in FACS buffer and incubated at 4° C. with a titration of anti-Siglec8-VHH-NNT for 30 minutes. After washing, the plates were incubated with an A647-conjugated anti-human Fcγ specific secondary antibody diluted 1:10,000 in FACS buffer for 20 minutes at 4° C. The plates were washed, and binding was determined by flow cytometry quantitating anti-human A647 median fluorescent intensity. The maximum specific binding (Bmax) and affinity (Kd) for was determined from the flow cytometry binding data using a nonlinear fit model.

[2] = target: T1, human Siglec-8 (full-length, on …); assay: flow cytometry on 293 cells transiently transfected with full-length human Siglec-8; A647 anti-human Fc-gamma secondary; median fluorescence, nonlinear fit; table under the graph (Kd column without unit, concentration axis nM Ab)
Method: as §1

T1 sequence (Q9NYZ4 17-499): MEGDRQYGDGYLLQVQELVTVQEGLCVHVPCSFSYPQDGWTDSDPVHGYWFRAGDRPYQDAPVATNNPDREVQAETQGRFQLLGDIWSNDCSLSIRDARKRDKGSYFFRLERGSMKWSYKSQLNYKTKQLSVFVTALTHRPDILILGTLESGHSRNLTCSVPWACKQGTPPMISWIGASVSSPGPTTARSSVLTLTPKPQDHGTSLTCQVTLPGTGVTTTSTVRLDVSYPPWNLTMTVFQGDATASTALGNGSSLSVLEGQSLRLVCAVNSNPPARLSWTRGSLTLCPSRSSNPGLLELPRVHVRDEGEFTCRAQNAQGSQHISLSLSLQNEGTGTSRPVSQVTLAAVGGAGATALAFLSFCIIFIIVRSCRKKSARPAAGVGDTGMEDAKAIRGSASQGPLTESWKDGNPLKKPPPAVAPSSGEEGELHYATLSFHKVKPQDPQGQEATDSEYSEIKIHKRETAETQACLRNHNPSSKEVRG

Binder | Bmax [1] | Kd [2]
Siglec8 hzG2v2.1, monomeric VHH-hIgG1 fusion (Fc NNT) (Fc fusion, Monomeric format; not shown: non-dimerizing human IgG1 Fc variant lacking a hinge (Fc NNT)) EVQLLESGGGEVQPGGSLRLSCAASGSISIFSMYVVAWYRQAPGKEREWVAFIQRGGTANYAESAKGRFTISRDNAKNTVYLQMSSLRAEDTAVYYCNYINSDNEIGGPWGQGTLVTVKP | 3.81e+06 Median (anti-human A647) | 1.57 nM
Siglec8 hzG2v14, monomeric VHH-hIgG1 fusion (Fc NNT) (Fc fusion, Monomeric format; not shown: non-dimerizing human IgG1 Fc variant lacking a hinge (Fc NNT)) EVQLLESGGGEVQPGGSLRLSCAASGSISIFSMYVVAWYRQAPGKEREWVAFIQRGGTANYAESAKGRFTISRDNAKNTVYLQMSSLRAEDTAVYYCNYINTDNEIGGPWGQGTLVTVKP | 1.35e+06 Median (anti-human A647) | 0.164 nM
Siglec8 hzG2v11, monomeric VHH-hIgG1 fusion (Fc NNT) (Fc fusion, Monomeric format; not shown: non-dimerizing human IgG1 Fc variant lacking a hinge (Fc NNT)) EVQLLESGGGEVQPGGSLRLSCAASGSISIFSMYVVAWYRQAPGKEREWVAFIQRGGTANYAESAKGRFTISRDNAKNTVYLQMSSLRAEDTAVYYCNYIQSDNEIGGPWGQGTLVTVKP | 1.47e+06 Median (anti-human A647) | 0.14 nM
Siglec8 hzG2v6.1, monomeric VHH-hIgG1 fusion (Fc NNT) (Fc fusion, Monomeric format; not shown: non-dimerizing human IgG1 Fc variant lacking a hinge (Fc NNT)) EVQLLESGGGEVQPGGSLRLSCAASGSISIFSMYVVAWYRQAPGKQREWVSFIQRGGTANYAESAKGRFTISRDNAKNTVYLQMSSLRAEDTAVYYCNYINSDNEIGGPWGQGTLVTVKP | 3.63e+06 Median (anti-human A647) | 1.7 nM
Siglec8 hzG2v24, monomeric VHH-hIgG1 fusion (Fc NNT) (Fc fusion, Monomeric format; not shown: non-dimerizing human IgG1 Fc variant lacking a hinge (Fc NNT)) QVTLKESGGGLVRTGGSLRLSCAASGSISIFSMYVVAWYRQAPGKQREWVAFIQRGGTANYAESAKGRFTISRDNAKNTVYLQMSSLRAEDTAVYYCNYINSDNEIGGPWGQGTLVTVKP | 1.27e+06 Median (anti-human A647) | 0.181 nM

More lines, in order of falling Kd [2], values ahead:

Bmax [1] | Kd [2] | Binder
1.25e+06 Median (anti-human A647) | 0.327 nM | Siglec8 hzG2v12, monomeric VHH-hIgG1 fusion (Fc NNT) (Fc fusion, Monomeric format; not shown: non-dimerizing human IgG1 Fc variant lacking a hinge (Fc NNT)) EVQLLESGGGEVQPGGSLRLSCAASGSISIFSMYVVAWYRQAPGKEREWVAFIQRGGTANYAESAKGRFTISRDNAKNTVYLQMSSLRAEDTAVYYCNYISSDNEIGGPWGQGTLVTVKP
1.4e+06 Median (anti-human A647) | 0.175 nM | Siglec8 hzG2v15, monomeric VHH-hIgG1 fusion (Fc NNT) (Fc fusion, Monomeric format; not shown: non-dimerizing human IgG1 Fc variant lacking a hinge (Fc NNT)) EVQLLESGGGEVQPGGSLRLSCAASGSISIFSYYVVAWYRQAPGKEREWVAFIQRGGTANYAESAKGRFTISRDNAKNTVYLQMSSLRAEDTAVYYCNYINSDNEIGGPWGQGTLVTVKP
1.06e+06 Median (anti-human A647) | 0.138 nM | Siglec8 hzG2v13, monomeric VHH-hIgG1 fusion (Fc NNT) (Fc fusion, Monomeric format; not shown: non-dimerizing human IgG1 Fc variant lacking a hinge (Fc NNT)) EVQLLESGGGEVQPGGSLRLSCAASGSISIFSMYVVAWYRQAPGKEREWVAFIQRGGTANYAESAKGRFTISRDNAKNTVYLQMSSLRAEDTAVYYCNYITSDNEIGGPWGQGTLVTVKP
1.49e+06 Median (anti-human A647) | 0.1 nM | Siglec8 hzG2v16, monomeric VHH-hIgG1 fusion (Fc NNT) (Fc fusion, Monomeric format; not shown: non-dimerizing human IgG1 Fc variant lacking a hinge (Fc NNT)) EVQLLESGGGEVQPGGSLRLSCAASGSISIFSLYVVAWYRQAPGKEREWVAFIQRGGTANYAESAKGRFTISRDNAKNTVYLQMSSLRAEDTAVYYCNYINSDNEIGGPWGQGTLVTVKP
